From patent publication US20210261944, “Compositions and methods for ordered and continuous complementary DNA (cDNA) synthesis across non-continuous templates” (The Regents of the University of California, published 2021)

Columns and labels:
[1] = target: T1, BomoC(ed) R2 RT (deltaN274, D996A) (Bombyx mori); assay: primer for low-PCR cDNA library; Mg2+, 37C; conditions: tags: N-terminal MBP, C-terminal 6xHis; partial duplex
T1 chain: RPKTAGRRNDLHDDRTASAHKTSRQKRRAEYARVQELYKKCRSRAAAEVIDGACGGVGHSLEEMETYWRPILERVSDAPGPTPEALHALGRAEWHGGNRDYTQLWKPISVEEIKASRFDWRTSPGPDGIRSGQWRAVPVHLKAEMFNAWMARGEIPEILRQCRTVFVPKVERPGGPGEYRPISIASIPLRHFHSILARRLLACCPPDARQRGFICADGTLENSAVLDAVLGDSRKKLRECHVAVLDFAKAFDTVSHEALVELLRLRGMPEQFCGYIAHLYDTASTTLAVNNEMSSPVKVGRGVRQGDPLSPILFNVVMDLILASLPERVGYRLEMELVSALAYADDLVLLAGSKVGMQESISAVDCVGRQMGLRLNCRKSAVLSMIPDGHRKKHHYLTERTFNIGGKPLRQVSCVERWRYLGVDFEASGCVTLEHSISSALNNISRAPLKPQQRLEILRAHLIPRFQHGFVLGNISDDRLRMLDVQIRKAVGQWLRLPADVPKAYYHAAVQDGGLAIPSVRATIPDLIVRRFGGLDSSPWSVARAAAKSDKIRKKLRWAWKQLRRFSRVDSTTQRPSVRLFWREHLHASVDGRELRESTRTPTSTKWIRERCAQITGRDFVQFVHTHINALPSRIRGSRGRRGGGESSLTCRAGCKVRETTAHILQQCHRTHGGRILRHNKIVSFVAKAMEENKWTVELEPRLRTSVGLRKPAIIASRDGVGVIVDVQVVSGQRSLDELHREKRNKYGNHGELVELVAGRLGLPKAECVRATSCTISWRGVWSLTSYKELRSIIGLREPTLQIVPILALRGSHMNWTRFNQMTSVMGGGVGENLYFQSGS

[2] = target: T1, BomoC(ed) R2 RT (deltaN274, D996A); assay: used as second (terminal) template in ordered template relay; Mg2+, 37C; conditions: tags: N-terminal MBP, C-terminal 6xHis; partial duplex, 3' C
Excerpt: (§1) FIG. 15B. Analysis of reaction products by denaturing PAGE and SYBR Gold staining using a template RNA pool of 963 equimolar miRNA sequences (miRXplore). The full-length cDNA library (labeled cDNA+adaptor template) and some cDNA product from copying of the miRNA template only (labeled cDNA) are the predominant products. Excess adaptor primer and adaptor template are also stained. “No enz” is the no enzyme control. Lane+/− indicates addition of RNase A after product denaturation, which removes the non-extended strand of the primer duplex and truncates the ˜70 nt 3′ adaptor template. The library was sequenced with results shown in comparison to a low-cycle-PCR library in FIG. 16B.
(§2) Typical assays for cDNA synthesis by processive use of multiple template molecules (i.e., serial template copying) used a DNA primer that was annealed in full or part to a second strand, usually RNA, to generate a primer 3′ end that was blunt duplex or a short 3′ overhang of defined sequence. Templates included chemically synthesized RNA or DNA oligonucleotides and/or RNAs purified after T7 RNA polymerase transcription; templates were also isolated from biological sources. Reaction conditions were typically 20 mM Tris-HCl pH 7.5, 150 mM KCl, 2 mM MgCl₂, 10% glycerol with incubations at room temperature or 37° C. […]

[3] = target: T1, BomoC(ed) R2 RT (deltaN274, D996A); assay: primer extended across ddA-tailed miRNA pool; full-length cDNA library; Mg2+, 37C; enzyme named as modified R2 RT; conditions: tags: N-terminal MBP, C-terminal 6xHis; partial duplex, +1T 3' overhang
Excerpt: as §1, §2

B1: low-PCR adaptor primer duplex c5p(uni)/c5pt (DNA:RNA)
DNA: GTGACTGGAGTTCAGACGTGTGCTCTTCCGATCC
RNA: GAUCGGAAGAGCACACGUCUGAACUCCAGU
modifications: 3' C3 spacer on RNA strand
[1]
  binding result: binds

B2: no-PCR adaptor template partial duplex c3t(FL)/c3t_comp (mixed)
DNA: AATGATACGGCGACCACCGAGATCTACACCGCAGACGACACTCTTTCCCTACACGACGCTCTTCCGATCTC
RNA: GUGUAGAUCUCGGUGGUCGCCGUAUCAUU
modifications: 5' amino modifier C6, mixed DNA/ribonucleotides; complement 3' C3 spacer
[2]
  binding result: binds

B3: no-PCR adaptor primer partial duplex c5p(FL)/c5pt (DNA:RNA)
DNA: CAAGCAGAAGACGGCATACGAGATGACGAGAGGTGACTGGAGTTCAGACGTGTGCTCTTCCGATCT
RNA: GAUCGGAAGAGCACACGUCUGAACUCCAGU
modifications: 3' C3 spacer on RNA strand
[3]
  binding result: binds
